Measurements: the PETadex activity labels (doi:10.1021/acscatal.2c02275)
Residue numbers refer to the chain shown, from its start.

B1: unnamed (protein)
chain: MANPYERGPDPTESSIEAVRGPFAVAQTTVSRLQADGFGGGTIYYPTDTSQGTFGAVAISPGFTAGQESIAWLGPRIASQGFVVITIDTITRLDQPDSRGRQLQAALDHLRTNSVVRNRIDPNRMAVMGHSMGGGGALSAAANNTSLEAAIPLQGWHTRKNWSSVRTPTLVVGAQLDTIAPVSSHSEAFYNSLPSDLDKAYMELRGASHSVSNTPDTTTAKYSIAWLKRFVDDDLRYEQFLCPAPDDFAISEYRSTCPF
B2: unnamed (protein)
chain: B1 chain with R205C, S210L, S251C
B3: unnamed (protein)
chain: B1 chain with I179F, S210L
B4: unnamed (protein)
chain: B1 chain with S210I
B5: unnamed (protein)
chain: B1 chain with S210K
B6: unnamed (protein)
chain: B1 chain with S210Y
B7: unnamed (protein)
chain: B1 chain with S210N
B8: unnamed (protein)
chain: B1 chain with L93F, Q95Y, S210L
B9: unnamed (protein)
chain: B1 chain with I179W, S210L
B10: unnamed (protein)
chain: B1 chain with S210L
B11: unnamed (protein)
chain: B1 chain with S210W
B12: unnamed (protein)
chain: MSNPYQRGPNPTRSALTADGPFSVATYTVSRLSVSGFGGGVIYYPTGTSLTFGGIAMSPGYTADASSLAWLGRRLASHGFVVLVINTNSRFDGPDSRASQLSAALNYLRTSSPSAVRARLDANRLAVAGHSMGGGGTLRIAEQNPSLKAAVPLTPWHTDKTFNTSVPVLIVGAEADTVAPVSQHAIPFYQNLPSTTPKVYVELCNASHIAPNSNNAAISVYTISWMKLWVDNDTRYRQFLCNVNDPALCDFRTNNRHCQL

How the values were obtained:
[1] = substrate: gfPET; test: Proxy for plastic degradation [Relative activity]; conditions: pH 8
[2] = substrate: pcPET (post-consumer); test: Proxy for plastic degradation [Released monomer concentration (HPLC/LC-MS) (MHET+TPA+BHET)]; conditions: pH 8; part of the chain shown

Protein	Proxy for plastic degradation [1]	Proxy for plastic degradation ([1]; part of the chain shown)	Proxy for plastic degradation [2]
B1	94%	–	–
B2	–	100%	62 mM
B3	9%	–	–
B4	54%	–	–
B5	48%	–	–
B6	68%	–	–
B7	97%	–	–
B8	–	100%	198 mM
B9	23%	–	–
B10	–	–	70 mM
B11	85%	–	–
B12	–	–	90 mM
